Experimental data: PMC3553496 (Science signaling, 2011)

Experiments:
Assay in all cases: peptide or protein array
[1] = target: T1, YLP motif–containing protein 1 peptide (18-mer) (human)
T1 peptide: HHLPPPPLPPPPVMPGGG

[2] = target: T2, Gephyrin peptide (18-mer) (human)
T2 peptide: FGRVFMKPGLPTTFATLD

[3] = target: T3, Glutamate–cysteine ligase catalytic peptide (18-mer) (human)
T3 peptide: WQTMRFKPPPPNSDIGWR

[4] = target: T4, Dishevelled, dsh homolog 3 peptide (18-mer) (human)
T4 peptide: MAFPRPRPWGPQEPLRAA

[5] = target: T5, U1 small nuclear ribonucleoprotein C peptide (18-mer) (human)
T5 peptide: GAMIPPPPSLPGPPRPGM

[6] = target: T6, Tight junction protein ZO-2 peptide (18-mer) (human)
T6 peptide: FGRSILKPSTPIPPQEGE

[7] = target: T7, Serine-threonine protein kinase WNK1 peptide (18-mer) (human)
T7 peptide: NATALELPGLPLSLPQPS

[8] = target: T8, Serine-threonine protein kinase N3 peptide (18-mer) (human)
T8 peptide: EMTPPPKPPRLYLPQEPT

[9] = target: T9, Focal adhesion kinase 1 peptide (18-mer) (human)
T9 peptide: DPAAPPKKPPRPGAPGHL

[10] = target: T10, NEDD9-interacting protein with calponin homology and LIM domains peptide (18-mer) (human)
T10 peptide: DPEMEPPPKPPRSCSALA

[11] = target: T11, Ankyrin repeat and SAM domain–containing protein 1A peptide (18-mer) (human)
T11 peptide: DRPYEEPPQKPPRFSQLR

[12] = target: T12, Rab11 family interacting protein 5 peptide (18-mer) (human)
T12 peptide: RIMETSPTLLQIPPGPPK

[13] = target: T13, SET and MYND domain–containing protein 3 peptide (18-mer) (human)
T13 peptide: NGLRAVTPLRPGELLFRS

[14] = target: T14, Coiled-coil domain–containing protein KIAA1826 peptide (18-mer) (human)
T14 peptide: SRRENELPDFPHIDEFFT

[15] = target: T15, EGFR kinase substrate 8 peptide (18-mer) (human)
T15 peptide: PKEQFIPPYVPRFRNGWE

[16] = target: T16, UPF0027 protein C22orf28 peptide (18-mer) (human)
T16 peptide: GSTRAFPPHHPLIAVDYQ

[17] = target: T17, Proline-rich protein 4 peptide (18-mer) (human)
T17 peptide: GHRQLSLPRFPSVSLQEA

[18] = target: T18, Statherin peptide (18-mer) (human)
T18 peptide: RFGYGYGPYQPVPEQPLY

[19] = target: T19, Tyrosine protein kinase ABL1 peptide (18-mer) (human)
T19 peptide: KKKKKTAPTPPKRSSSFR

[20] = target: T20, Adenylyl cyclase–associated protein 1 peptide (18-mer) (human)
T20 peptide: PPPPPPCPPPPPVSTISC

[21] = target: T21, Diaphanous homolog 1 peptide (18-mer) (human)
T21 peptide: LPGGTAIPPPPPLPGSAR

[22] = target: T22, DAZ-associated protein 1 peptide (18-mer) (human)
T22 peptide: QFSFGYGPPPPPPDQFAP

[23] = target: T23, Splicing factor 1 peptide (18-mer) (human)
T23 peptide: GMPPFGMPPAPPPPPPQN

B1: GST-tagged SRGAP2 SH3 domain (domain or fragment)
chain: not shown
- relative binding strength (% of the strongest interaction of this SH3 domain) [1]: 100%
- relative binding strength (% of the strongest interaction of this SH3 domain) [2]: 55%
- relative binding strength (% of the strongest interaction of this SH3 domain) [3]: 18%
- relative binding strength (% of the strongest interaction of this SH3 domain) [4]: 9%

B2: GST-tagged ARHGAP12 SH3 domain (domain or fragment, human, UniProt Q8IWW6 15-73, looked up)
chain: VYIEVEYDYEYEAKDRKIVIKQGERYILVKKTNDDWWQVKPDENSKAFYVPAQYVKEVT
- relative binding strength (% of the strongest interaction of this SH3 domain) [5]: 100%
- relative binding strength (% of the strongest interaction of this SH3 domain) [6]: 93%
- relative binding strength (% of the strongest interaction of this SH3 domain) [7]: 52%

B3: GST-tagged ARHGAP26 SH3 domain (domain or fragment, human, UniProt Q9UNA1 759-814, looked up)
chain: RKAKALYACKAEHDSELSFTAGTVFDNVHPSQEPGWLEGTLNGKTGLIPENYVEFL
- relative binding strength (% of the strongest interaction of this SH3 domain) [8]: 100%
- relative binding strength (% of the strongest interaction of this SH3 domain) [9]: 91%
- relative binding strength (% of the strongest interaction of this SH3 domain) [10]: 64%
- relative binding strength (% of the strongest interaction of this SH3 domain) [11]: 27%
- relative binding strength (% of the strongest interaction of this SH3 domain) [12]: 6%

B4: GST-tagged ARHGAP9 SH3 domain (domain or fragment, human, UniProt Q9BRR9 25-87, looked up)
chain: SQLCALYAFTYTGADGQQVSLAEGDRFLLLRKTNSDWWLARRLEAPSTSRPIFVPAAYMIEES
- relative binding strength (% of the strongest interaction of this SH3 domain) [13]: 100%
- relative binding strength (% of the strongest interaction of this SH3 domain) [14]: 70%
- relative binding strength (% of the strongest interaction of this SH3 domain) [15]: 24%
- relative binding strength (% of the strongest interaction of this SH3 domain) [16]: 13%

B5: GST-tagged SNX26 SH3 domain (domain or fragment, human, UniProt O14559 189-247, looked up)
chain: AAAHVIKRYTAQAPDELSFEVGDIVSVIDMPPTEDRSWWRGKRGFQVGFFPSECVELFT
- relative binding strength (% of the strongest interaction of this SH3 domain) [17]: 100%
- relative binding strength (% of the strongest interaction of this SH3 domain) [18]: 28%
- relative binding strength (% of the strongest interaction of this SH3 domain) [19]: 20%
- relative binding strength (% of the strongest interaction of this SH3 domain) [20]: 10%

B6: GST-tagged ARHGAP4 SH3 domain (domain or fragment)
chain: not shown
- relative binding strength (% of the strongest interaction of this SH3 domain) [21]: 100%
- relative binding strength (% of the strongest interaction of this SH3 domain) [22]: 18%
- relative binding strength (% of the strongest interaction of this SH3 domain) [23]: 7%
